Laboratory results as given in publication PMC3686867, “Characterization of a Novel Putative S-Adenosylmethionine Decarboxylase-Like Protein from Leishmania donovani” (PLoS ONE, 2013).

Assays:
[1] = target: T1, S-adenosylmethionine decarboxylase-like protein (ADL; putative S-adenosylmethionine decarboxylase-like proenzyme) (Leishmania donovani, UniProt E9BM59); experiment: tryptophan fluorescence quenching titration (saturation isotherm); supported by far-UV CD; type: binding
T1 construct: gene LdCL_300037200; 894 bp L. donovani ADL gene in pQE30, 6×His-ADL, ~33 kDa, dimer
T1 sequence (E9BM59 1-297): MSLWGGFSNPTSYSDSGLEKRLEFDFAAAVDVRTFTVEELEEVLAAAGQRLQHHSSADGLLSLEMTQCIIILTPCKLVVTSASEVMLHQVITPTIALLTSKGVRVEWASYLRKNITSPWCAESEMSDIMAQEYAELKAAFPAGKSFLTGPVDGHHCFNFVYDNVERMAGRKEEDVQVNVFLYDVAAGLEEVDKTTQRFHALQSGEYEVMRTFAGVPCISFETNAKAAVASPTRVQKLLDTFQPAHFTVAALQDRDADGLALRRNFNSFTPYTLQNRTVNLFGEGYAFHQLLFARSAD

[2] = target: Leishmania donovani putative S-adenosylmethionine decarboxylase-like proenzyme (ADL) (Leishmania donovani); experiment: SEC; Superdex 75 10/300; ADL 1 mg/ml; 50 mM Tris-HCl pH 7.0, 50 mM NaCl, 3 mM β-me; 25°C; calibrated with low molecular weight standards; elution at 10.4 ml, ~66 kDa
[3] = target: Leishmania donovani putative S-adenosylmethionine decarboxylase-like proenzyme (ADL) (Leishmania donovani); experiment: native gel or EMSA; native polyacrylamide gel electrophoresis of purified ADL

| Molecule | Kd [1] [µM] | stoichiometry N [2] | stoichiometry N [3] |
| --- | --- | --- | --- |
| C[S+](CC[C@H](N)C(=O)[O-])C[C@H]1O[C@@H](n2cnc3c(N)ncnc32)[C@H](O)[C@@H]1O (stereo partly drawn) [S-adenosylmethionine] | 51 ± 5 | – | – |
| Leishmania donovani putative S-adenosylmethionine decarboxylase-like proenzyme (ADL) (natural protein) | – | 2 | 2 |
